How the values were obtained:
[1] = molecular target: rhTIM-3-Fc AF647 (R&D Systems 2365-TM) (Homo sapiens (Human)., UniProt Q8TDQ0, AF647); experiment: flow cytometry on cells
[2] = molecular target: human TIM-3 on primary blood cells (Homo sapiens (Human)., UniProt Q8TDQ0); experiment: flow cytometry on cells
[3] = molecular target: biotinylated recombinant human TIM-3-Fc chimera (R&D Systems 2365-TM) (human, UniProt Q8TDQ0, biotin (EZ-Link Sulfo-NHS-LC-Biotinylation kit)); experiment: ELISA
rhTIM-3-IgG1-Fc = rhTIM-3-IgG1-Fc (human, UniProt Q8TDQ0); experiment: ELISA

B1: M6903, fully human anti-TIM-3 monoclonal IgG2 antibody (antibody, V domains shown)
VH: not shown
VL: QSALTQPRSVSGSPGQSVTISCTGTSSDVGGYNYVSWYQQHPGKAPKLMIYDVSKRPSGVPDRFSGSKSGNTASLTISGLQAEDEADYYCSSYADSVVFGGGTKVTVL
- IC50 [1]: 4.44 ± 3.12 nM
- EC50 [2]: 0.74 ± 0.57 nM
- IC50 [3]: 7.46 ± 0.052 nM
- IC50 (rhTIM-3-IgG1-Fc): 0.353 ± 0.383 nM
